From patent US7425449

Key:
[1] = biological target: T1, U153 integrase (Listeria phage U153) (UniProt Q8LTD8); assay: cell_activity
T1 sequence: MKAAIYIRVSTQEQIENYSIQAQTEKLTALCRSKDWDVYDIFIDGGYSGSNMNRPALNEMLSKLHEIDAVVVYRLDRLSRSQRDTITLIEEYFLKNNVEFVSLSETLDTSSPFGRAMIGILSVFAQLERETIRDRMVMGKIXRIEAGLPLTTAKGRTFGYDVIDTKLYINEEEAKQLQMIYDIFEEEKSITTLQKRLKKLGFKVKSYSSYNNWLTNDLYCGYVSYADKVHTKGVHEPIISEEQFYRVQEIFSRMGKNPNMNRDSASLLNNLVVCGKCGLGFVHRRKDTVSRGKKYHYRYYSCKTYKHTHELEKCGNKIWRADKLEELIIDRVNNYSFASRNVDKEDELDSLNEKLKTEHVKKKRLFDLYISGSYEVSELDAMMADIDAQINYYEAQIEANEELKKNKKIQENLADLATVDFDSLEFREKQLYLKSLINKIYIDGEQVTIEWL

[2] = biological target: T2, PSA integrase (Listeria phage PSA) (UniProt Q8W5Y3); assay: cell_activity; details: pPL2 in 10403S and EGDe; attB' side unrelated to 4b, attB side 96-97% identical
T2 sequence: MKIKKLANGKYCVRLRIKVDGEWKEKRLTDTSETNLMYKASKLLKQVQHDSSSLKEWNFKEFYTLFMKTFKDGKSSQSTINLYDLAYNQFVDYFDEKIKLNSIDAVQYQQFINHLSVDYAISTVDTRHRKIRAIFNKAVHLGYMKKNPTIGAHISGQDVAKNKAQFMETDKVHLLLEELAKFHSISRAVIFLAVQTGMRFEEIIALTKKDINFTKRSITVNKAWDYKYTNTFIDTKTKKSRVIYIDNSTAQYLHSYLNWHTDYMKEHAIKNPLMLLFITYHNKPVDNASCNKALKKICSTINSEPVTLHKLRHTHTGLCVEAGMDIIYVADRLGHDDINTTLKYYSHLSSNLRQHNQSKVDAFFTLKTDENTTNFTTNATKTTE

U153 attPP' showed an activity (integrants per donor cell) ([1]; attPP' partner on pPL1, stable for 100 generations) of 0.0002.
comK-attBB' gave an activity (integrants per donor cell) ([1]; pPL1 integration at comK in DP-L4056, similar frequency in SLCC-5764 and 4b strains, PCR confirmed) of 0.0002.
With “tRNAArg-attBB' serotype 1/2 (10403S, EGDe)” the activity (integrants per donor cell) [2] was 0.0002.
